Results from article doi:10.1101/2023.12.20.572361.

Columns and labels:
[1] = H&E and immunofluorescence of skeletal muscle; settings: glycan lost; control: WT mice
[2] = homozygous birth rate from heterozygous crosses; settings: glycan lost; control: expected Mendelian ratio
[3] = EDL eccentric contraction protocol; settings: glycan lost; control: WT mice
[4] = EDL CSA from mass and fibre length; settings: glycan lost; control: WT mice
[5] = EDL isometric tetanic and specific force in vitro; settings: glycan lost; control: WT mice
[6] = glycan lost; control: WT mice
[7] = forelimb grip strength test; settings: glycan lost; control: WT mice
[8] = forelimb grip strength, AAV rescue of DAG1 KO; settings: glycan lost; control: AAV WT DAG1

B1: dystroglycan (mDag1): T315A/T317A (protein)
parent chain: MSVDNWLLHPLWGQTFLLLLSVAVAQAHWPSEPSEAVRDWKNQLEASMHSVLSDFQEAVPTVVGIPDGTAVVGRSFRVSIPTDLIASSGEIIKVSAAGKEALPSWLHWDPHSHILEGLPLDTDKGVHYISVSAARLGANGSHVPQTSSVFSIEVYPEDHNEPQSVRAASSDPGEVVPSACAADEPVTVLTVILDADLTKMTPKQRIDLLNRMQSFSEVELHNMKLVPVVNNRLFDMSAFMAGPGNAKKVVENGALLSWKLGCSLNQNSVPDIRGVETPAREGAMSAQLGYPVVGWHIANKKPTLPKRLRRQIHATPTPVTAIGPPTTAIQEPPSRIVPTPTSPAIAPPTETMAPPVRDPVPGKPTVTIRTRGAIIQTPTLGPIQPTRVSEAGTTVPGQIRPTLTIPGYVEPTAVITPPTTTTKKPRVSTPKPATPSTDSSTTTTRRPTKKPRTPRPVPRVTTKAPITRLETASPPTRIRTTTSGVPRGGEPNQRPELKNHIDRVDAWVGTYFEVKIPSDTFYDNEDTTTDKLKLTLKLREQQLVGEKSWVQFNSNSQLMYGLPDSSHVGKHEYFMHATDKGGLSAVDAFEIHVHKRPQGDKAPARFKARLAGDPAPVVNDIHKKIALVKKLAFAFGDRNCSSITLQNITRGSIVVEWTNNTLPLEPCPKEQIIGLSRRIADENGKPRPAFSNALEPDFKALSIAVTGSGSCRHLQFIPVAPPSPGSSAAPATEVPDRDPEKSSEDDVYLHTVIPAVVVAAILLIAGIIAMICYRKKRKGKLTLEDQATFIKKGVPIIFADELDDSKPPPSSSMPLILQEEKAPLPPPEYPNQSMPETTPLNQDTVGEYTPLRDEDPNAPPYQPPPPFTAPMEGKGSRPKNMTPYRSPPPYVPP
Question: Which results are given for B1?
Answer: other: skeletal muscle histopathology [1]: no change; other: embryonic viability, other: homozygous birth rate [2]: 10%; other: susceptibility to contraction-induced injury [3]: no change; other: muscle cross-sectional area [4]: changes; other: muscle contractile force [5]: no change

B2: dystroglycan (mDag1): Pax7-Cre 4X mutant (protein)
parent chain: B1 parent chain
Question: For B2, which “other: neuromuscular junction integrity” value [6] is on record?
Answer: decreases

B3: dystroglycan (mDag1): 4X mut. (floxed WT allele removed by Pax7-Cre or AAV-CMV-Cre) (protein)
parent chain: B1 parent chain
Question: With B3 as the protein, how does the “other: skeletal muscle histopathology” value [1] read?
Answer: increases

B4: dystroglycan (mDag1): 4X mut. (Pax7-Cre or AAV-CMV-Cre) (protein)
parent chain: B1 parent chain
Question: For B4, which “other: grip strength” value [7] is on record?
Answer: decreases

Question: And the “other: susceptibility to contraction-induced injury” value [3]?
Answer: increases

Question: And the “other: muscle contractile force” value [5]?
Answer: decreases

B5: dystroglycan (mDag1): AAV T315A/T317A DAG1 (protein)
parent chain: B1 parent chain
Question: Which “other: rescue of grip strength” value [8] does the source give for B5 here?
Answer: no change

B6: dystroglycan (mDag1): AAV 4X mutant DG (protein)
parent chain: B1 parent chain
Question: Which “other: rescue of grip strength” value [8] does the source give for B6 here?
Answer: abolishes

B7: dystroglycan (mDag1): 4X mut. (protein)
parent chain: B1 parent chain
Question: Which “other: embryonic viability, other: homozygous birth rate” value [2] does the source give for B7 here?
Answer: abolishes

B8: dystroglycan (mDag1): T377A/T379A (protein)
parent chain: B1 parent chain
Question: Which results are given for B8?
Answer: other: skeletal muscle histopathology [1]: no change; other: embryonic viability, other: homozygous birth rate [2]: 22%; other: susceptibility to contraction-induced injury [3]: no change; other: muscle cross-sectional area [4]: no change; other: muscle contractile force [5]: no change
